B1: SMOC2 (parent)
chain: DCAGSPQKPLCASDGRTFLSRCEF

Variants of: B1
Experiment: protein stability index of a GFP-peptide fusion (GPS, HEK-293T) (PSI 1-6); higher = more stable
Conditions: c terminus: a fixed tail appended
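Also: lentivirally expressed fusions sorted by FACS into six bins by GFP to DsRed ratio, PSI derived from sequencing read proportions per bin multiplied by bin number.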

Variant | protein stability index
DCAGEPQKPLCASDGRTFLSRCEF | 2.56
DCAGTPQKPLCASDGRTFLSRCEF | 2.24
DCAGRPQKPLCASDGRTFLSRCEF | 2.66
DCAGCPQKPLCASDGRTFLSRCEF | 2.24
DCAGMPQKPLCASDGRTFLSRCEF | 2.52
DCAGVPQKPLCASDGRTFLSRCEF | 2.76
DCDGSPQKPLCASDGRTFLSRCEF | 2.95
DCKGSPQKPLCASDGRTFLSRCEF | 2.89
DCYGSPQKPLCASDGRTFLSRCEF | 2.02
DCPGSPQKPLCASDGRTFLSRCEF | 2.37
DCVGSPQKPLCASDGRTFLSRCEF | 2.66
DCNGSPQKPLCASDGRTFLSRCEF | 2.66
DCAGSPQKPHCASDGRTFLSRCEF | 3.54
DCAGSPQKPQCASDGRTFLSRCEF | 4.04
DCAGSPQKPSCASDGRTFLSRCEF | 2.97
DCAGSPQKPKCASDGRTFLSRCEF | 3.1
DCAGSPQKPNCASDGRTFLSRCEF | 2.08
DCAGSPQKPACASDGRTFLSRCEF | 2.92
DCAGSPQKPWCASDGRTFLSRCEF | 2.16
DCAGSPQKPLFASDGRTFLSRCEF | 1.8
DCAGSPQKPLDASDGRTFLSRCEF | 3.79
DCAGSPQKPLAASDGRTFLSRCEF | 2.7
DCAGSPQKPLPASDGRTFLSRCEF | 3.47
DCAGSPQKPLKASDGRTFLSRCEF | 2.72

Variant | protein stability index
DCAGSPQKPLTASDGRTFLSRCEF | 2.48
DCAGSPQKPLYASDGRTFLSRCEF | 2.58
DCAGSPQIPLCASDGRTFLSRCEF | 2.68
DCAGSPQQPLCASDGRTFLSRCEF | 2.77
DCAGSPQVPLCASDGRTFLSRCEF | 2.13
DCAGSPQKPLCASMGRTFLSRCEF | 2
DCAGSPQKPLCASEGRTFLSRCEF | 2.54
DCAGSPQKPLCASWGRTFLSRCEF | 1.89
DCAGSPQKPLCASRGRTFLSRCEF | 2.03
DCAGSPQKPLCASIGRTFLSRCEF | 2.12
DCAGSPQKPLCASLGRTFLSRCEF | 2.2
DCAGSPQKPLCASFGRTFLSRCEF | 1.81
DCAGSPQKPLCASCGRTFLSRCEF | 1.6
DCAGSPQKPLCASYGRTFLSRCEF | 2.26
DCAGSPQKWLCASDGRTFLSRCEF | 1.04
DCAGSPQKFLCASDGRTFLSRCEF | 1.99
DCAGSPQKALCASDGRTFLSRCEF | 3.42
DCAGSPQKVLCASDGRTFLSRCEF | 2.4
DCAGSPQKGLCASDGRTFLSRCEF | 2.73
DCAGSPQKQLCASDGRTFLSRCEF | 3.13
DCAGSPQKELCASDGRTFLSRCEF | 2.72
DCAGSPQKMLCASDGRTFLSRCEF | 2.63
DCAGSPQKHLCASDGRTFLSRCEF | 2.36
DCAGSPQKILCASDGRTFLSRCEF | 2.04

Variant | protein stability index
DCAGSPQKPLCASDGRTFLSFCEF | 2.02
DCAGSPQKPLCASDGRTFLSICEF | 1.67
DCAGSPQKPLCASDGRTFLSWCEF | 1.76
DCAGSPQKPLCASDGRTFLSECEF | 3.62
DCAGSPQKPLCASDGRTFLSPCEF | 3.91
DCAGSPQKPLCASDGRTFLSQCEF | 3.1
DCAGSPQKPLCASDGRTFLSTCEF | 1.9
DCAGSPQKPLCASDGRTFLSGCEF | 4.57
DCAGSPQKPLCASDGRTFLSKCEF | 2.67
DCAGSPQKPLCASDGRTFLSRAEF | 3.86
DCAGSPQKPLCASDGRTFLSRSEF | 3.49
DCAGSPQKPLCASDGRTFLSRKEF | 4.42
DCAGSPQKPLCASDGRTFLSRYEF | 3.67
DCAGSPQKPLCASDGRTFLSRQEF | 4.19
DCAGSPQKPLCASDGRTFLSRFEF | 2.5
DCAGSPQKPLCASDGRTFLSREEF | 4.38
DCAGSPQKPLCASDGRTFLSRGEF | 3.96
DCAGSPQKPLCASDPRTFLSRCEF | 3
DCAGSPQKPLCASDDRTFLSRCEF | 3.49
DCAGSPQKPLCASDQRTFLSRCEF | 2.57
DCAGSPQKPLCASDVRTFLSRCEF | 2.03
DCAGSPQKPLCASDWRTFLSRCEF | 2.06
DCAGSPQKPLCASDHRTFLSRCEF | 2.27
DCAGSPQKPLCASDTRTFLSRCEF | 2.65

Variant | protein stability index
DCAGSPQKPLCASDSRTFLSRCEF | 2.5
DCAGSPQKPLCASDRRTFLSRCEF | 2.83
DCAGSPQKPLCASDKRTFLSRCEF | 2.3
DCAGSPWKPLCASDGRTFLSRCEF | 2.55
DCAGSPIKPLCASDGRTFLSRCEF | 1.83
DCAGSPNKPLCASDGRTFLSRCEF | 1.96
DCAGSPRKPLCASDGRTFLSRCEF | 3.06
DCAGSPFKPLCASDGRTFLSRCEF | 1.75
DCAGSPGKPLCASDGRTFLSRCEF | 2.88
DGAGSPQKPLCASDGRTFLSRCEF | 3.66
DQAGSPQKPLCASDGRTFLSRCEF | 3.12
DDAGSPQKPLCASDGRTFLSRCEF | 3.44
DAAGSPQKPLCASDGRTFLSRCEF | 2.79
DRAGSPQKPLCASDGRTFLSRCEF | 3.19
DSAGSPQKPLCASDGRTFLSRCEF | 2.18
DYAGSPQKPLCASDGRTFLSRCEF | 2.63
DKAGSPQKPLCASDGRTFLSRCEF | 3.03
DCAGSPQKPLCAIDGRTFLSRCEF | 3.88
DCAGSPQKPLCAWDGRTFLSRCEF | 2.09
DCAGSPQKPLCATDGRTFLSRCEF | 2.91
DCAGSPQKPLCANDGRTFLSRCEF | 2.82
DCAGSPQKPLCAKDGRTFLSRCEF | 2.39

— the supplement of paper PMC10567573
